The text below walks through data of the supplement of paper PMC9112550, “Optimization of the antimicrobial peptide Bac7 by deep mutational scanning” (BMC Biology, 2022).

The series concerns Escherichia coli TOP10. The series can be described thus: shrunken log2 fold change of peptide-encoding DNA abundance (4.5 h post-induction vs induction); higher = less antimicrobial activity (less host growth inhibition). As to conditions: time post-induction: 4.5 h; library: site-saturation at positions 5, 18, 19, 20.
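Note: peptides expressed intracellularly from a pBAD plasmid library in pooled LB shake-flask culture, induced with 0.3% L-arabinose, DNA abundance read by NGS, three biological replicates, DESeq2 with apeglm shrinkage.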

Turning to RRIRTRPPRLPRPRPRPQMRPRP, the “shrunken log2 fold change” value worked out at 0.472.

As to RRIRVRPPRLPRPRPRPYQLPRP, the “shrunken log2 fold change” value was -0.228. As for RRIRFRPPRLPRPRPRPATLPRP, the “shrunken log2 fold change” value is -0.159. Take RRIRDRPPRLPRPRPRPAQNPRP: the “shrunken log2 fold change” value is 0.308. RRIRKRPPRLPRPRPRPCNTPRP: the “shrunken log2 fold change” value was -0.113. For RRIRQRPPRLPRPRPRPFSWPRP, the “shrunken log2 fold change” value is -0.0597. For RRIRWRPPRLPRPRPRPMRIPRP the value was 0.222; for RRIRQRPPRLPRPRPRPFRTPRP, -0.255; for RRIRHRPPRLPRPRPRPYIKPRP, -0.287. For RRIRMRPPRLPRPRPRPNTKPRP the value was -0.0097. Next, RRIRKRPPRLPRPRPRPLSKPRP: 0.213. Consider RRIRERPPRLPRPRPRPDGPPRP, for which the “shrunken log2 fold change” value amounted to 0.115. On to RRIRDRPPRLPRPRPRPVHPPRP, for which the “shrunken log2 fold change” value is 0.184. Next, RRIRWRPPRLPRPRPRPIDPPRP: -0.193. Next, RRIRMRPPRLPRPRPRPVCWPRP: 0.833; RRIRVRPPRLPRPRPRPLFIPRP: 0.101; RRIRMRPPRLPRPRPRPFSYPRP: -0.029. Next, RRIRVRPPRLPRPRPRPGIGPRP: 0.344.

For the sequence RRIRNRPPRLPRPRPRPLLSPRP, the “shrunken log2 fold change” value is 0.1. For RRIRCRPPRLPRPRPRPKPCPRP the value was 0.084; for RRIRQRPPRLPRPRPRPIPAPRP, 0.214; for RRIRCRPPRLPRPRPRPMPYPRP, -0.189. Next, RRIRKRPPRLPRPRPRPATSPRP: 0.288; RRIRKRPPRLPRPRPRPCCKPRP: 0.099.

In the case of RRIRARPPRLPRPRPRPCHHPRP, the “shrunken log2 fold change” value was -0.0114. For RRIRTRPPRLPRPRPRPDILPRP the value was 0.109. For RRIRARPPRLPRPRPRPAMCPRP the value was 0.303; for RRIRERPPRLPRPRPRPWMFPRP, 0.0458. Next, RRIRARPPRLPRPRPRPDKQPRP: -0.0794; RRIRERPPRLPRPRPRPQGEPRP: -0.0686; RRIRCRPPRLPRPRPRPTAVPRP: 0.393.

Turning to RRIRDRPPRLPRPRPRPVYWPRP, the “shrunken log2 fold change” value was -0.469.

RRIRQRPPRLPRPRPRPYIPPRP: the “shrunken log2 fold change” value was -0.619. Next, RRIRQRPPRLPRPRPRPSEEPRP: -0.226; RRIRARPPRLPRPRPRPSLSPRP: -0.224; RRIRYRPPRLPRPRPRPIEDPRP: -0.274. Next, RRIRDRPPRLPRPRPRPSSHPRP: -0.124. For RRIRNRPPRLPRPRPRPFGWPRP the value was 0.0221; for RRIRVRPPRLPRPRPRPCCQPRP, -0.19; for RRIRFRPPRLPRPRPRPSCGPRP, -0.235. RRIRWRPPRLPRPRPRPQAMPRP: the “shrunken log2 fold change” value was found to be 0.179. For RRIRPRPPRLPRPRPRPQDVPRP the value was -0.373. For RRIRSRPPRLPRPRPRPAKFPRP the value was -0.134; for RRIRTRPPRLPRPRPRPCSDPRP, -0.104; for RRIRDRPPRLPRPRPRPPLYPRP, 0.0303. With RRIRARPPRLPRPRPRPACRPRP, the “shrunken log2 fold change” value came to 0.896. For RRIRLRPPRLPRPRPRPGKGPRP the value was -0.0192.

Regarding RRIRKRPPRLPRPRPRPWHGPRP, the “shrunken log2 fold change” value was -0.165.

With RRIRFRPPRLPRPRPRPHHFPRP, the “shrunken log2 fold change” value is -0.053. Next, RRIRGRPPRLPRPRPRPQCYPRP: -0.0337.

Take RRIRFRPPRLPRPRPRPSDRPRP: the “shrunken log2 fold change” value is -0.853. Regarding RRIRIRPPRLPRPRPRPLTMPRP, the “shrunken log2 fold change” value was -0.181.

For the sequence RRIRARPPRLPRPRPRPYVTPRP, the “shrunken log2 fold change” value was -0.658. For RRIRQRPPRLPRPRPRPFSRPRP the value was 0.00616; for RRIRGRPPRLPRPRPRPWYVPRP, -2.24; for RRIRKRPPRLPRPRPRPVFPPRP, 0.0527. For RRIRCRPPRLPRPRPRPEHPPRP the value was -0.131. Next, RRIRRRPPRLPRPRPRPNWGPRP: 0.412; RRIRVRPPRLPRPRPRPYYQPRP: -0.245.

As to RRIRNRPPRLPRPRPRPYKAPRP, the “shrunken log2 fold change” value was -0.388. Next, RRIRCRPPRLPRPRPRPHTIPRP: -0.38; RRIRRRPPRLPRPRPRPTFKPRP: 0.214; RRIRDRPPRLPRPRPRPNWMPRP: -0.0161. Next, RRIRNRPPRLPRPRPRPLQGPRP: 0.0149; RRIRDRPPRLPRPRPRPRQHPRP: 0.153; RRIRFRPPRLPRPRPRPDMNPRP: -0.407. For RRIRKRPPRLPRPRPRPSTHPRP the value was -0.17; for RRIRTRPPRLPRPRPRPEFHPRP, -0.351; for RRIRVRPPRLPRPRPRPANFPRP, 0.0908. On to RRIRLRPPRLPRPRPRPFPLPRP, for which the “shrunken log2 fold change” value is -0.0787. For RRIRGRPPRLPRPRPRPNEMPRP the value was 0.703; for RRIRTRPPRLPRPRPRPAQMPRP, 0.0652; for RRIRKRPPRLPRPRPRPFKLPRP, 0.0306. With RRIRYRPPRLPRPRPRPLSNPRP, the “shrunken log2 fold change” value is -0.233. Take RRIRRRPPRLPRPRPRPAVKPRP: the “shrunken log2 fold change” value amounted to 0.0474. For RRIRIRPPRLPRPRPRPKSRPRP the value was -0.108; for RRIRWRPPRLPRPRPRPRGCPRP, 0.961. For RRIRQRPPRLPRPRPRPNKCPRP the value was -0.145; for RRIRKRPPRLPRPRPRPVLAPRP, 0.605. For the sequence RRIRYRPPRLPRPRPRPCPWPRP, the “shrunken log2 fold change” value is -0.227.

With RRIRVRPPRLPRPRPRPEDKPRP, the “shrunken log2 fold change” value is -0.00975. Next, RRIRRRPPRLPRPRPRPINEPRP: -0.0486; RRIRYRPPRLPRPRPRPFKFPRP: 0.0599. For RRIRFRPPRLPRPRPRPMNGPRP the value was -0.0885; for RRIRARPPRLPRPRPRPGFIPRP, -0.339.

Regarding RRIRYRPPRLPRPRPRPQKAPRP, the “shrunken log2 fold change” value was -0.0304.

RRIRWRPPRLPRPRPRPDKGPRP: the “shrunken log2 fold change” value was found to be 0.0389. RRIRLRPPRLPRPRPRPIVYPRP: the “shrunken log2 fold change” value was -0.43. For RRIRSRPPRLPRPRPRPDCHPRP the value was -0.0994; for RRIRTRPPRLPRPRPRPAKPPRP, 0.583; for RRIRSRPPRLPRPRPRPMNDPRP, -0.075.

In the case of RRIRNRPPRLPRPRPRPRDSPRP, the “shrunken log2 fold change” value was determined as 0.0829. For RRIRNRPPRLPRPRPRPGGHPRP the value was -0.102; for RRIRCRPPRLPRPRPRPYIFPRP, -0.773.

On to RRIRVRPPRLPRPRPRPGITPRP, for which the “shrunken log2 fold change” value is -0.238.

For RRIRERPPRLPRPRPRPETWPRP, the “shrunken log2 fold change” value is -0.0594. Next, RRIRWRPPRLPRPRPRPPCQPRP: 0.0989; RRIRIRPPRLPRPRPRPEQTPRP: 0.0649. Next, RRIRKRPPRLPRPRPRPSIQPRP: -0.149; RRIRDRPPRLPRPRPRPEQPPRP: -0.0458. For RRIRFRPPRLPRPRPRPECIPRP the value was -0.04; for RRIRPRPPRLPRPRPRPTQAPRP, 0.0364; for RRIRTRPPRLPRPRPRPYACPRP, -0.216. For RRIRDRPPRLPRPRPRPHHTPRP, the “shrunken log2 fold change” value was -1.13. For RRIRIRPPRLPRPRPRPHWQPRP the value was 1.4.

Turning to RRIRPRPPRLPRPRPRPKSGPRP, the “shrunken log2 fold change” value is 0.356. On to RRIRFRPPRLPRPRPRPSHYPRP, for which the “shrunken log2 fold change” value was -0.762. For RRIRFRPPRLPRPRPRPKGIPRP the value was -0.0392; for RRIRYRPPRLPRPRPRPMRYPRP, -0.114; for RRIRIRPPRLPRPRPRPVYKPRP, -0.834. Next, RRIRHRPPRLPRPRPRPSPRPRP: 0.0803; RRIRDRPPRLPRPRPRPEIKPRP: 1.54. For RRIRHRPPRLPRPRPRPDYMPRP the value was -0.336; for RRIRERPPRLPRPRPRPAWEPRP, 0.506.

Turning to RRIRPRPPRLPRPRPRPGIEPRP, the “shrunken log2 fold change” value is -0.00839. For RRIRGRPPRLPRPRPRPIKNPRP the value was 0.488; for RRIRTRPPRLPRPRPRPRQRPRP, 0.394. Next, RRIRSRPPRLPRPRPRPATYPRP: -0.429; RRIRVRPPRLPRPRPRPANTPRP: -0.0315. Next, RRIRVRPPRLPRPRPRPLIEPRP: 0.103; RRIRTRPPRLPRPRPRPHQQPRP: -0.0314; RRIRVRPPRLPRPRPRPGGVPRP: 0.224. Take RRIRERPPRLPRPRPRPSWHPRP: the “shrunken log2 fold change” value is -0.215. Next, RRIRWRPPRLPRPRPRPYFEPRP: -0.483; RRIRMRPPRLPRPRPRPSTLPRP: -0.239.
